Test results from patent US20130071431A1, “Method for Preserving Polypeptides Using A Sugar and Polyethyleneimine” (Stabilitech Ltd., priority 2008, published 2013).

Columns and labels:
[1] = HRP activity assay (OPD/H2O2) after freeze-drying and heat-freeze cycles; assay type: biochemical
Method: Type IV horse radish peroxidase (HRP, Sigma-Aldrich) was diluted to 1 μg/ml in:
The PEI was obtained from Sigma (P3143, Mn 60,000). The PEI concentration was based on Mn. 10×100 μl volumes of each of the above solutions were prepared in 5 ml freeze-drying vials. Five replicates of each solution were freeze-dried from minus 32° C. over a 3 day cycle on a VirTis Advantage laboratory freeze-dryer using the protocol described in Example 6.
One vial from each solution of the liquid and dried samples was placed at 4° C. while the rest were frozen to −20° C. Samples from each of the liquid and dry solutions were subjected to 2, 4, and 6 heat-freeze cycles by removing them from the −20° C. freezer and placing them in an incubator set at 37° C. for 4 hours before replacing them in the freezer for 20 hrs 2, 4 and 6 times. 1 vial of each was retained at −20° C. as a control.
When the cycling was completed all the samples, including the −20° C. and 4° C. maintained non-cycled controls were allowed to equilibrate to room temperature. The freeze-dried samples were then reconstituted with 100 μl/vial of deionised water at room temperature.
Triplicate 10 μl samples were removed from each vial into wells of a flat bottomed ELISA plate (Nunc Maxisorb). To each well was then added 50 ul of a chromogen/substrate solution containing 0.4 mg/ml orthophenylene diamine (OPD) and 0.4 ul/ml 30% hydrogen peroxide (H2O2). Colour was allowed to develop before the reaction was stopped by the addition of 50 μl/well of 1M sulphuric acid (H2SO4). Absorbance was measured at 490 nm on a BioTek Synergy HT spectrophotometer and plotted as optical density (OD).

[2] = Beta-galactosidase assay with x-gal (Example 11); assay type: biochemical; conditions: 1M Suc, 100 mM Raf
Method: Excipients mixtures containing β-galactosidase were prepared according to the table below and vortexed. 10 units of β-galactosidase were added to each vial. 200 μl of the vortexed mixture was placed in each appropriately labelled 5 ml glass vials. PEI was obtained from Sigma (P3143, Mn 60,000).
The condenser chamber was −70° C. However there was no shelf control on the freeze-drying unit.
Following freeze-drying, vials were reconstituted in 1 ml PBS. 100 μl of the resulting solution from each vial was added in duplicate (giving a total of 6 readings per excipient type) to each well of a flat bottom 96 well plate. The substrate x-gal was added as according to the manufacturer's instructions. Briefly, a stock solution of 20 mg/ml was made in DMSO and used at a 1 mg/ml working concentration. 100 μl was added to each well and the solution allowed to develop over 10 minutes. Following development, absorbance was measured at 630 nm on a synergy HT microplate. Background from blank wells was then subtracted from all the readings and results assessed using Prism Graphpad.

[3] = test system: HL-60 cells (phospho-ERK1/ERK2); test: Cell-based ELISA of phosphorylated ERK1/ERK2 in HL-60 cells
Method: Sucrose solution was prepared by adding 32 g sucrose powder to 32 ml PBS in a 50 ml falcon tube to give a final volume of 52 ml correlating to a final concentration of 61.54%. The solution was gently heated in a microwave to assist initial solvation but thereafter stored at 4° C.
Raffinose solution was prepared by adding 4 g raffinose to 8 ml PBS in a 50 ml falcon tube to give a final volume of 10.2 ml corresponding to a final concentration of 39.2%. The solution was heated in a microwave to allow complete solvation.
To produce the final sugar mix, the sucrose and raffinose solutions described above were mixed in a 4:1 ratio. In practise, 32 ml sucrose solution was mixed with 8 ml raffinose solution. Once composed, sugar mix was stored at 4° C. and suffered no precipitation.
6 g of PEI (50% w/v) was added to 500 ml PBS to make 6 mg/ml then diluted 1 in 10 to make 600 ug/ml. 600 μg/ml was then diluted to make 100 μg/ml solution of PEI. Serial 1 in 10 dilutions were prepared in PBS to a concentration of 0.01 μg/ml. For final concentrations of PEI refer to Table 2 below. Concentrations were calculated based on Mn.
10 μg of 98% purified recombinant human G-CSF was reconstituted in 1 ml of PBS and diluted to 0.2 ng/ml in PBS (1 in 50,000 dilution), with a starting concentration 10 μg/ml. The G-CSF was aliquoted in 15 μl in Eppendorf tubes and stored at −20° C. for further use.
First dilution: 10 μl of G-CSF at 10 μg/ml was added to 990 μl of PBS (1 in 100 dilutions). Second dilution: 10 μl of 1 in 100 dilutions of G-CSF was added to 4.99 ml of PBS (1 in 500 dilutions). For final concentrations of G-CSF refer to Table 2.
Excipients were prepared according to Table 2. The final concentration of G-CSF was 0.2 ng/ml per vial. The excipients were vortexed to mix and 100 μl placed in each appropriately labelled 5 ml glass vial. Samples were freeze dried by the VirTis Advantage freeze dryer for approximately 3 days.
Samples were prepared as 100 μl aliquots. Freeze-dried samples were resuspended in 100 μl of water.
The ELISA assay method described below was followed as general assay procedure of cell base assay's kit (R&D Systems).
HL-60 cells were maintained in phenol red containing RPMI 1640 supplemented with 20% foetal bovine serum (FBS), Glutamine and Penicillin Streptomycin. HL-60 cells were passaged weekly and medium was replenished every 2-3 days.
The HL-60 (passage three) were transferred to a centrifuge tube and spun down at 1300 rpm, for 5 minutes at 4° C. The supernatant was poured off into a T-75 flask. The pellet was resuspended in 10 ml cold media.
200 μl of cell suspension was transferred into an Eppendorf tube by using a 5 ml pipette. 100 μl of cell suspension was added to 100 μl of trypan blue into another Eppendorf tube and mixed. […]

[4] = test system: HL60 cells (ERK1/2 phosphorylation); test: HL60 cell stimulation assay, immunoblot of phosphorylated and total ERK1/2; assay type: cell-based
Method: A lyophilised sample of G-CSF was reconstituted to a concentration of 10 μg/ml. 160 μl of sucrose (1.82M) and 40 μl of raffinose (0.75M) were mixed with 50 μl of PEI (at a concentration of 150 nM based on Mn) to complete the preservation mixture. 50 μl of the reconstituted G-CSF solution was added and mixed well.
100 μl aliquots of the final mixture was distributed into separate vials, and frozen or freeze-dried. Lyophilisation was carried out overnight as described in Example 1. […] Following incubation, the samples were reconstituted in RPMI prior to use.
HL60 cells (shown to be mycoplasma free) were maintained in phenol red containing RPMI 1640 supplemented with 10% foetal bovine serum (FBS) and 2 mM glutamine. Cells were passaged weekly and medium was replenished every 2-3 days.
For stimulation assays HL60 cells were harvested and transferred to serum free medium at a density of 5×10^5 perwell of a 6 well plate. After 24 hours cells were stimulated for 5 minutes with the treatments shown in FIG. 2 (100 ng/ml G-CSF) and as indicated below:
Whole cell extracts were resolved by SDS-PAGE and then transferred to nylon membranes, which were immunoprobed with antibodies against phosphorylated and total ERK1/2.
Cell suspensions were harvested (1000 rpm for 5 minutes) and washed with ice-cold PBS. Cell pellets were then lysed in extraction buffer (1% (v/v) Triton X100, […], pH 7.4, 5 mM EDTA, 50 mM NaCl, 50 mM sodium fluoride 2 mM Na3VO4 and 1 tablet of Complete™ inhibitor mix (Boehringer) per 10 ml of buffer) and homogenised by passage through a 26-gauge needle 6 times. The lysate was incubated on ice for 10 minutes then clarified by centrifugation (14,000 rpm for 10 minutes at 4° C.). The protein concentration was then quantified using the […] (Biorad, Inc.). Equal amounts of protein ([…]) were resolved by SDS-PAGE (10% gels) and then subjected to immunoblot analysis. Antigen-antibody interactions were detected with ECL (Pierce, UK).

[5] = native (untreated) G-CSF, 100 ng/ml, 5 minutes, serum starved HL60 cells

HRP: Type IV horse radish peroxidase (HRP, Sigma-Aldrich)
HRP activity (OD 490 nm) ([1]; 1M Suc/100 mM Raf with or without 16.6 nM PEI versus PBS alone, all treatments and storage conditions): better maintained
HRP activity after heat/freeze cycles ([1]; excipient-treated samples, 6 heat/freeze cycles (37° C. 4 hours / −20° C. 20 hrs)): still maintained more HRP activity than unchallenged samples in PBS
loss of HRP activity ([1]; sugars, especially in combination with PEI, at the initial freeze-drying stage): significantly reduces loss of HRP activity

β-galactosidase: β-galactosidase enzyme (Sigma)
β-galactosidase activity following freeze-drying ([2]; 13.3 μM PEI, compared to sucrose/raffinose alone): further enhanced
β-galactosidase activity following freeze-drying ([2]; no PEI, compared to PBS): high in sucrose/raffinose excipients compared to PBS

B1: G-CSF: human recombinant G-CSF (Sigma in Example 2; MBL JM-4094-10 in Examples 14 and 16) (protein, UniProt P09919 31-207, looked up)
Granulocyte …: TPLGPASSLPQSFLLKCLEQVRKIQGDGAALQEKLVSECATYKLCHPEELVLLGHSLGIPWAPLSSCPSQALQLAGCLSQLHSGLFLYQGLLQALEGISPELGPTLDTLQLDVADFATTIWQQMEELGMAPALQPTQGAMPAFASAFQRRAGGVLVASHLQSFLEVSYRVLRHLAQP
level of phosphorylated ERK1/ERK2 ([3]; 1M Suc, 0.1M Raf with 1.6 μM, 0.16 μM or 0.016 μM PEI, freeze dried, heat treated at 56° C. (15 min, 1 h, 2 h, O/N)): higher level of phosphorylated ERK1/ERK2
protection of G-CSF (ERK 1/2 phosphorylation) ([3]; 1M Suc, 0.1M Raf with 1.6 μM, 0.16 μM or 0.016 μM PEI, freeze dried, 37° C. or 56° C. for 1 week): protects and stabilises G-CSF
efficacy (phosphorylated ERK1/ERK2) ([3]; freeze-dried with high level of PEI, heat treated at 56° C.): greater efficacy
protection of G-CSF (ERK 1/2 phosphorylation) ([3]; sugars with PEI final concentration of 1.6 μM, freeze dried, 37° C. and 56° C. for 1 week): highest level of protection
potency (ERK1/2 phosphorylation) compared to untreated G-CSF ([4]; G-CSF mixed with excipient and freeze-dried (FIG. 2C)): maintain the potency
activity (ERK1/2 phosphorylation) compared to untreated G-CSF ([4]; G-CSF mixed with excipient then heat treated 37° C. for 72 hours, not freeze-dried (FIG. 2B)): marked loss of activity
protection against heat inactivation (ERK1/2 phosphorylation) ([4]; G-CSF mixed with excipient, freeze-dried and heat treated 37° C. for 72 hours (FIG. 2D)): protect G-CSF against heat inactivation
ERK1/2 phosphorylation [4, 5]: enhance phosphorylation
total ERK1/2 levels [4, 5]: without any effect
